Test results: patent US20220332804A1 (CSL INNOVATION, published 2022)
Changes are numbered by the printed parent chain.

T1: human complement C2 (human, UniProt P06681 21-752)
T1 construct: Recombinant full-length human C2 with C-terminal 8x His tag, purified from Expi293F supernatant; also called human C2; huC2
T1 sequence: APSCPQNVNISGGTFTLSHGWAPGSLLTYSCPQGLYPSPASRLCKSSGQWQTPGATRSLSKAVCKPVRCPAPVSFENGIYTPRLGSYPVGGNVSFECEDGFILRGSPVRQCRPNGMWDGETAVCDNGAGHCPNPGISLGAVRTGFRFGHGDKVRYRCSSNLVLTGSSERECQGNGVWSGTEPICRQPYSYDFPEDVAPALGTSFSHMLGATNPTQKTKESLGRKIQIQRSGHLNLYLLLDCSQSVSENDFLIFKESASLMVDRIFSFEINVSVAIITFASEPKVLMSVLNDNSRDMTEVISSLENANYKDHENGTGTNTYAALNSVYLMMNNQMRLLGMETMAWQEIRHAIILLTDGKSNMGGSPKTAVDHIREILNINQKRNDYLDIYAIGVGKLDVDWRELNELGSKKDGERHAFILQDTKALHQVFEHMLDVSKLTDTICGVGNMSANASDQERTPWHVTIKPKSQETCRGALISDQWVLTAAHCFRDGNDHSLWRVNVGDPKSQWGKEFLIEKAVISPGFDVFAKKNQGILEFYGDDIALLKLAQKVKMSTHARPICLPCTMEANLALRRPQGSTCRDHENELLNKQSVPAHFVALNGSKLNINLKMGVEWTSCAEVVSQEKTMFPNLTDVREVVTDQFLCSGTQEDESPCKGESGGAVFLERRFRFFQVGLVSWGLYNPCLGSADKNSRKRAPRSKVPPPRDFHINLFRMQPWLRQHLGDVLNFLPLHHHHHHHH

T2: human C2 A470S (human, UniProt P06681 21-752)
T2 sequence: T1 sequence with A450S

T3: human C2 Q447A (human, UniProt P06681 21-752)
T3 sequence: T1 sequence with Q427A

B1: RF16-226 (antibody)
heavy: not shown
light: SYELTQPPSVSVSPGQTARITCSGDALTSKYVAWYQQKSGLAPLLVIYEDTRRPSGIPAKFSGSSSGSVATLTISGAHGDDEADYYCYSTDASGHQRVFGGGTKLTVLSQPKAAPSVTLFPPSSEELQANKATLVCLISDFYPGAVTVAWKADGSPVKAGVETTKPSKQSNNKYAASSYLSLTPEQWKSHRSYSCQVTHEGSTVEKTVAPTECS
B2: RF16-226 (antibody, human IgG4 S228P, lambda)
heavy: not shown
light: B1 light
notes: pH-dependent anti-C2 antibody from a phage display library; also called WT

Key:
human complement C2 [1] = target: T1, human complement C2; assay: SPR, mAb captured, huC2 analyte, pH 7.3
human complement C2 [2] = target: T1, human complement C2; assay: SPR, mAb captured, huC2 analyte, pH 6
human C2 A470S = target: T2, human C2 A470S; assay: SPR, antibody captured, C2 as analyte;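 further: biacore SPR at 37 °C, anti-C2 mAbs captured via goat anti-human IgG on CM5 chips, double-referenced sensorgrams fit to a 1:1 kinetic or steady-state model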
human C2 Q447A = target: T3, human C2 Q447A; assay: SPR, antibody captured, C2 as analyte;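 further: biacore SPR at 37 °C, anti-C2 mAbs captured via goat anti-human IgG on CM5 chips, double-referenced sensorgrams fit to a 1:1 kinetic or steady-state model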

Row | Binder | Kd (human complement C2 [1]) [nM] | Kd (human complement C2 [2]) [nM] | Kd (human C2 A470S) [nM] | Kd (human C2 Q447A) [nM]
1 | B1 | ~10 | ~80 |  | 
2 | B2 |  |  | 7.8 | 5.4
